Here are results for two molecules from patent publication US20250011450A1.

Assay [1] has as its target OX40 expressed on Jurkat cells (NF-kB luciferase reporter line) (UniProt P43489). Nature of the assay: cell-based or functional assay.
Assay [2] deals with anti-OX40 clone 3C8, iAbaff2 IgG. Nature of the assay: SEC-MALS at 4.9 mg/ml, self-association.
Assay [3] shares this target. Nature of the assay: SEC-MALS at 0.38 mg/ml, self-association. For orientation: SEC sorts molecules by how far they enter the pores of the column.
For assay [4] the target is unchanged. Description: SEC-MALS, self-association.
For assay [5] the target is unchanged. Nature of the assay: SEC-MALS at 1.9 mg/ml, self-association.

Sequence of UniProt P43489 (P43489 29-277 limits assumed): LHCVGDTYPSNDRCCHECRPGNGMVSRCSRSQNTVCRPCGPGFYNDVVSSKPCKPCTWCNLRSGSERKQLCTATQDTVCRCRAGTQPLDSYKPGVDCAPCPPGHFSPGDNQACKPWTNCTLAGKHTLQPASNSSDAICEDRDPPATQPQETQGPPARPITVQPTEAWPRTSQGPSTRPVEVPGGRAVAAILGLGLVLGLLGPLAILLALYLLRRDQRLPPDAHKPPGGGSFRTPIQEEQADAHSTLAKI

B1: anti-OX40 clone 3C8, iAbaff1 monomeric Fab (Fab, part only; not given: Light chain, CH1 and tag, not shown: small tags and cut ends)
heavy, part: EVQLVQSGAEVKKPGATVVVLCKASGYAFTNYLIEWVRQAPGQGLEWIGVINPGSGDTYYSEKFKGRVTLFADTSTSQAILILTSLRSEDTAVYYCARDRLDYWGQGTLVTVSS
In assay [1], B1 came in with an EC50 of OX40 agonist activity (Jurkat OX40 NF-kB luciferase reporter), fold against iAb IgG of 100 fold and a maximal OX40 agonist activity (Jurkat OX40 NF-kB luciferase reporter), fold against iAb IgG of 2 fold.

B2: anti-OX40 clone 3C8, iAbaff2 IgG (antibody, part only; not given: Light chain, V domains shown, part only)
VH: EVQLVQSGAEVKKPGASVIVSCKASGYAFTNYLIEWVRQAPGQGLEWIGVINPGSGDTYYSEKFKGRVFLFADTSTSTAYLVLSSLRSEDTAVYYCARDRLDYWGQGTLVTVSS
B2: the SEC-MALS Molecular Weight (Da) came out at 244000 Da in assay [2], 204000 Da in assay [3], 227000 Da in assay [4] and 225000 Da in assay [5].
